Here are results for six substances from patent publication US20220387578A1.

Assay [1] has as its target eHead_H1Solomon (wild-type H1 head domain monomer) (influenza A virus) (UniProt B4URD6). Kind of assay: SPR. (SPR reads the build-up and loss of mass on a sensor chip optically.)
For assay [2], the target named is eHead-H3HK68_v1 (wild-type H3 head domain monomer) (influenza A virus) (UniProt Q91MA7). As to the kind of experiment: SPR.
Assay [3] concerns the target H7 HA A/New York/107/2003, recombinant (influenza A virus).
Assay [4] addresses A/Taiwan/2/2013 (Influenza A virus). As to the kind of experiment: ELISA on coated recombinant HA. (In general: ELISA stands for enzyme-linked immunosorbent assay.)
For assay [5], the target named is H1 HA A/Solomon Islands/03/2006 (H1N1), recombinant soluble trimer (influenza A virus). Kind of assay: ELISA on coated recombinant HA.
The target in assay [6] is A/Duck/Czechoslovakia/1956 (Influenza A virus). Kind of assay: ELISA on coated recombinant HA.
Assay [7] has as its target A/Chicken/Germany/N/1949 (Influenza A virus). Kind of assay: ELISA on coated recombinant HA.
Assay [8] concerns the target H2 HA A/Singapore/1/1957, recombinant soluble trimer (influenza A virus). Kind of assay: ELISA on coated recombinant HA.
The target of assay [9] is H5 HA A/Indonesia/05/2005 (H5N1), recombinant (influenza A virus). Kind of assay: ELISA on coated recombinant HA.
For assay [10], the target named is H7 HA A/Shanghai/2/2013 (H7N9), recombinant uncleaved trimer (influenza A virus). Kind of assay: ELISA on coated recombinant HA.
The target of assay [11] is H12 HA A/duck/Alberta/60/1976, recombinant (influenza A virus). Kind of assay: ELISA on coated recombinant HA.
In assay [12] the target is A/Fort Monmouth/1/1947 (Influenza A virus). Kind of assay: ELISA on coated recombinant HA.
Assay [13] addresses H15 HA A/shearwater/Western Australia/2576/1979, recombinant (influenza A virus). Kind of assay: ELISA on coated recombinant HA.
The target in assay [14] is H5 HA A/Vietnam/1203/2004 (H5N1), recombinant (influenza A virus). Kind of assay: ELISA on coated recombinant HA.
In assay [15] the target is H1 HA A/Texas/36/1991 (H1N1), recombinant soluble trimer (influenza A virus). Kind of assay: ELISA on coated recombinant HA.
For assay [16], the target named is A/Turkey/Wisconsin/1/1966 (Influenza A virus). Kind of assay: ELISA on coated recombinant HA.
Assay [17] deals with H14 HA A/mallard duck/Astrakhan/263/1982, recombinant (influenza A virus). Kind of assay: ELISA on coated recombinant HA.
The target in assay [18] is A/California/07/2004 (Influenza A virus). Kind of assay: ELISA on coated recombinant HA.
Assay [19] concerns the target H3 HA A/Texas/50/2012, recombinant soluble trimer (influenza A virus). As to the kind of experiment: ELISA on coated recombinant HA.
Assay [20] addresses purified HA protein of H1N1 A/California/07/2009 (Sino Biological 11085-V08B) (influenza A virus). As to the kind of experiment: cell-based or functional assay.
For assay [21], the target named is A/Duck/Czechoslovakia/1956 (Influenza A virus). Kind of assay: ELISA on coated recombinant HA; row printed A/Duck/Czechoslovakia/1958.
Assay [22] addresses A/Taiwan/2/2013 (Influenza A virus). As to the kind of experiment: ELISA on coated recombinant HA. This is another data set of the same source.
For assay [23], the target named is H2 HA A/Singapore/1/1957, recombinant soluble trimer (influenza A virus). As to the kind of experiment: ELISA on coated recombinant HA. This is another data set of the same source.
For assay [24], the target named is A/Tennessee/3/2019 (Influenza A virus). As to the kind of experiment: ELISA on coated recombinant HA.
Assay [25] has as its target H5 HA A/Indonesia/05/2005 (H5N1), recombinant (influenza A virus). As to the kind of experiment: ELISA on coated recombinant HA. This is another data set of the same source.
For assay [26], the target named is A/Yokohama/110/2019 (Influenza A virus). As to the kind of experiment: ELISA on coated recombinant HA.
Assay [27] addresses A/Puerto Rico/8/1934 (Influenza A virus). As to the kind of experiment: ELISA on coated recombinant HA.
Assay [28] concerns the target A/Turkey/Ontario/6118/1967 (Influenza A virus). As to the kind of experiment: ELISA on coated recombinant HA.
The target in assay [29] is H5 HA A/Vietnam/1203/2004 (H5N1), recombinant (influenza A virus). Kind of assay: ELISA on coated recombinant HA. This is another data set of the same source.
Assay [30] deals with H3 HA A/Texas/50/2012, recombinant soluble trimer (influenza A virus). Kind of assay: ELISA on coated recombinant HA. This is another data set of the same source.
The target of assay [31] is A/Hong Kong/125/2017 (Influenza A virus). As to the kind of experiment: ELISA on coated recombinant HA.
The target of assay [32] is H3 HA A/Switzerland/9715293/2013, recombinant soluble trimer (influenza A virus). Kind of assay: ELISA.
The target in assay [33] is H13 HA A/gull/Maryland/704/1977, recombinant (influenza A virus). As to the kind of experiment: ELISA.
In assay [34] the target is H9 HA A/Hong Kong/1073/99, recombinant (influenza A virus). As to the kind of experiment: ELISA.
In assay [35] the target is H1 HA A/Solomon Islands/03/2006 (H1N1), recombinant soluble trimer (influenza A virus). As to the kind of experiment: ELISA.
In assay [36] the target is H2 HA A/Singapore/1/1957, recombinant soluble trimer (influenza A virus). Kind of assay: ELISA.
Assay [37] concerns the target H5 HA A/Indonesia/05/2005 (H5N1), recombinant (influenza A virus). As to the kind of experiment: ELISA.
Assay [38] addresses H7 HA A/New York/107/2003, recombinant (influenza A virus). Kind of assay: ELISA.
Assay [39] addresses H7 HA A/Shanghai/2/2013 (H7N9), recombinant uncleaved trimer (influenza A virus). Kind of assay: ELISA.
Assay [40] has as its target H16 HA A/black-headed gull/Sweden/4/1999, recombinant (influenza A virus). As to the kind of experiment: ELISA.
Assay [41] concerns the target H5 HA A/Vietnam/1203/2004 (H5N1), recombinant (influenza A virus). As to the kind of experiment: ELISA.
Assay [42] addresses H1 HA A/Texas/36/1991 (H1N1), recombinant soluble trimer (influenza A virus). Kind of assay: ELISA.
Assay [43] addresses H3 HA A/Minnesota/11/10, recombinant soluble trimer (influenza A virus). Kind of assay: ELISA.
Assay [44] addresses H14 HA A/mallard duck/Astrakhan/263/1982, recombinant (influenza A virus). As to the kind of experiment: ELISA.
For assay [45], the target named is H3 HA A/Texas/50/2012, recombinant soluble trimer (influenza A virus). As to the kind of experiment: ELISA.
The target in assay [46] is H1 HA A/Texas/36/1991 (H1N1), recombinant soluble trimer (influenza A virus). As to the kind of experiment: ELISA on coated recombinant HA; row printed A/Texas/38/1991.
The target of assay [47] is H3 HA A/Hong Kong/1/1968 (H3N2), recombinant soluble trimer (influenza A virus) (UniProt Q91MA7). Kind of assay: ELISA on coated recombinant HA.
For assay [48], the target named is H12 HA A/duck/Alberta/60/1976, recombinant (influenza A virus). Kind of assay: ELISA on coated recombinant HA. This is another data set of the same source.
Assay [49] deals with H1 HA A/Solomon Islands/03/2006 (H1N1), recombinant soluble trimer (influenza A virus). As to the kind of experiment: BLI, biotinylated HA on streptavidin sensor. On the technique in general: BLI is a label-free optical method that tracks binding on a fibre tip over time.
Assay [50] deals with H3 HA A/Victoria/361/2011 (H3N2) (influenza A virus). Kind of assay: BLI, biotinylated HA on streptavidin sensor.
Assay [51] concerns the target H5 HA A/Indonesia/05/2005 (H5N1), recombinant (influenza A virus). Kind of assay: BLI, biotinylated HA on streptavidin sensor.
For assay [52], the target named is H5 HA A/Vietnam/1203/2004 (H5N1), recombinant (influenza A virus). Kind of assay: BLI, biotinylated HA on streptavidin sensor.
For assay [53], the target named is H3 HA A/Victoria/3/1975 (H3N2) (influenza A virus). Kind of assay: BLI, biotinylated HA on streptavidin sensor.
In assay [54] the target is H12 HA A/duck/Alberta/60/1976, recombinant (influenza A virus). As to the kind of experiment: ELISA.
The target of assay [55] is H15 HA A/shearwater/Western Australia/2576/1979, recombinant (influenza A virus). As to the kind of experiment: ELISA.

Where two headings read alike, the source gives them in different places.

On to C05 (antibody), for which the Kd in assay [1] worked out at 0.086 µM; in assay [2] it was 0.17 µM.

For CH65 (antibody), the Kd in assay [1] was 0.34 µM.

With “FluA-20 (hybridoma-produced IgG) (antibody)”, the EC50 in [3] was over 2.5 µg/mL; in [4], 0.061 µg/mL; in assay [5], 0.008 µg/mL; in assay [6], 0.007 µg/mL; in [7], 0.037 µg/mL; in assay [8], 0.009 µg/mL. Besides, the EC50 in assay [9] is 0.016 µg/mL; in assay [10], 0.012 µg/mL; in assay [11] it was 0.006 µg/mL; in [12], 0.007 µg/mL; in assay [13], 0.007 µg/mL; in assay [14], 0.142 µg/mL. Besides, the EC50 in assay [15] is 0.009 µg/mL; in assay [16] it was 0.022 µg/mL; in assay [17] it was 0.007 µg/mL; in assay [18], 0.008 µg/mL; in assay [19], 0.006 µg/mL; in assay [21], 0.006 µg/mL. Moreover, the concentration for a half-maximal effect (EC50) in assay [22] was 0.073 µg/mL; in assay [23], 0.007 µg/mL; in assay [24], 0.007 µg/mL; in assay [25] it was 0.015 µg/mL; in [26], 0.009 µg/mL; in assay [27], 0.005 µg/mL. Moreover, the EC50 in [28] is 0.004 µg/mL; in [29], 0.036 µg/mL; in assay [30], 0.008 µg/mL; in assay [31] it was 0.009 µg/mL; in assay [32], 0.019 µg/mL; in assay [33] it was 0.07 µg/mL. Besides, the 50% effective concentration (EC50) was determined as 0.009 µg/mL in assay [34]; 0.005 µg/mL in [35]; 0.007 µg/mL in assay [36]; 0.085 µg/mL in [37]; 0.808 µg/mL in assay [38]; 0.066 µg/mL in assay [39]. In addition, the EC50 in assay [40] is over 10 µg/mL; in [41], 0.283 µg/mL; in [42] it was 0.004 µg/mL; in assay [43], over 10 µg/mL; in assay [44], 0.013 µg/mL; in assay [45], 0.004 µg/mL. Moreover, in [46], the EC50 is 0.021 µg/mL. This substance also registered an NK cell activation (% of NK cells with IFN-γ and/or CD107a) at 0.1 µg/mL FluA-20 in assay [20] of 1.3%. In assay [20], this substance gave an NK cell activation (% of NK cells with IFN-γ and/or CD107a) at 1 µg/mL FluA-20 of 9.2%. The same substance returned an NK cell activation (% of NK cells with IFN-γ and/or CD107a) at 10 µg/mL FluA-20 in assay [20] of 14.6%.

Regarding MEDI-8852 (antibody), the EC50 in assay [3] amounted to 0.117 µg/mL; in assay [21] it was 0.018 µg/mL; in [22], 0.157 µg/mL; in assay [47], 0.014 µg/mL; in [23], 0.023 µg/mL; in assay [24], 0.014 µg/mL. In addition, the EC50 was 0.134 µg/mL in [25]; 0.043 µg/mL in [26]; 0.361 µg/mL in assay [48]; 0.013 µg/mL in assay [27]; 0.081 µg/mL in [28]; 0.009 µg/mL in assay [29]. The EC50 was 0.024 µg/mL in assay [30], 0.069 µg/mL in assay [31] and 0.063 µg/mL in [46].

Take rFluA-20 Fab: the equilibrium dissociation constant (Kd) in assay [49] worked out at 0.002 µM; in [50] it was 0.015 µM; in assay [51] it was 0.088 µM; in assay [52], 0.122 µM; in [53], 3.46 µM.

For the substance “rFluA-20 IgG (recombinant FluA-20) (antibody)”, the EC50 in assay [4] stood at 0.063 µg/mL; in assay [5] it was 0.008 µg/mL; in assay [6], 0.007 µg/mL; in [7], 0.041 µg/mL; in assay [8] it was 0.011 µg/mL; in [9], 0.016 µg/mL. The EC50 in assay [10] amounted to 0.013 µg/mL; in assay [11] it was 0.006 µg/mL; in assay [12], 0.007 µg/mL; in assay [13], 0.007 µg/mL; in [14], 0.133 µg/mL; in assay [15], 0.008 µg/mL. For the same substance, the EC50 turned out to be 0.016 µg/mL in assay [16]; 0.007 µg/mL in [17]; 0.009 µg/mL in assay [18]; 0.007 µg/mL in [19]; 0.007 µg/mL in assay [34]; 0.008 µg/mL in assay [35]. The EC50 in assay [36] was 0.011 µg/mL; in [37], 0.016 µg/mL; in [39], 0.013 µg/mL; in assay [54], 0.006 µg/mL; in assay [55], 0.007 µg/mL; in assay [42], 0.008 µg/mL. For the same substance, the EC50 in assay [44] and in [45] was 0.007 µg/mL in each case.

For orientation: Kd means the free concentration of one partner at which half of the binding sites on the other are occupied at equilibrium, for simple one-to-one binding. What is called EC50 is the concentration at which the effect is half-maximal.
